This is an account of results in publication PMC11189471.

A value given as a limit tells only on which side of the number the result lay.

A word on the Kd: it is the concentration at which binding is half-saturated. Read a low Kd as tighter binding.

The target in experiment [1] is full-length HpARI2 (Alarmin Release Inhibitor, Heligmosomoides polygyrus bakeri) (Heligmosomoides polygyrus bakeri). Nature of the experiment: SPR; 400-450 RU biotinylated HpARI2 captured on the chip; two-fold series (1000 nM to 15.62 nM) of hIL-33 or hIL-33:S158R flowed. A general note: Surface plasmon resonance follows binding to a sensor surface in real time, without labels.

For experiment [2], the target named is HpARI2_CCP2/3 (Heligmosomoides polygyrus bakeri). Briefly: SPR; biotinylated HpARI2 variant (300-400 RU) captured on a Biotin CAPture chip, two-fold series of mIL-33 (or mIL-33 R159A) injected; Biacore T200, 25 °C, 20 mM Tris-Cl pH 8.0, 150 mM NaCl, 1 mM EDTA, 0.02% Tween-20, 1 mg/ml salmon sperm DNA; Langmuir 1:1 fit.
In experiment [3] the target is HpARI2_CCP1/2 (HpARI2 lacking CCP3) (Heligmosomoides polygyrus bakeri). Briefly: SPR; biotinylated HpARI2 variant (300-400 RU) captured with the Biotin CAPture kit; two-fold series of IL-33 flowed at 40 µl/min; 25 °C; 20 mM Tris-Cl pH 8.0, 150 mM NaCl, 1 mM EDTA, 0.02% Tween-20, 1 mg/ml salmon sperm DNA; Langmuir fit.
In experiment [4] the target is HpARI2-LD (full-length HpARI2 with residues 180-188 of the CCP3 loop deleted) (Heligmosomoides polygyrus bakeri). The description is as above.
Experiment [5] concerns the target HpARI2_CCP2/3 (HpARI2 lacking CCP1) (Heligmosomoides polygyrus bakeri). The description is as above.
Experiment [6] concerns the target full-length HpARI2 (Alarmin Release Inhibitor, Heligmosomoides polygyrus bakeri) (Heligmosomoides polygyrus bakeri). The description is as above.
Experiment [7] addresses HpARI2-LD (full-length HpARI2 with residues 180-188 of the CCP3 loop deleted) (Heligmosomoides polygyrus bakeri). Nature of the experiment: SPR; screening of HpARI2 variants for mIL-33 binding at one concentration (legend: HpARI2 concentration of 100 nM); same reagents and equipment as the kinetic SPR; n = 3.
Experiment [8] has as its target mouse IL-33 (residues 112-270) (mouse). Nature of the experiment: SPR; 1000-1200 RU ST2-Fc captured on a protein A/G-coated CM5 chip; mIL-33 (2 µM) alone or mixed with 2.5 µM HpARI2, HpARI2_CCP2/3 or HpARI2-LD flowed; 20 mM Tris-Cl pH 8.0, 150 mM NaCl, 1 mg/ml salmon sperm DNA, 0.02% Tween-20.
The target is the same in experiment [9].

Regarding “human IL-33 (from UniProt O95760 1-270) (ligand)”, the Kd in experiment [1] amounted to 65 nM.

Regarding mouse IL-33 R159A (ligand), the Kd in experiment [2] came out at 3.8 µM. This lies in the single-digit micromolar range.

Take mouse IL-33 (residues 112-270) (ligand): the Kd in experiment [3] turned out to be 49 nM; in experiment [4] it was 45 nM; in experiment [5] it was 4 nM; in experiment [6], 0.048 nM. Further, the fold koff against full-length HpARI2 in experiment [3] is more than 100 fold. In [7], this substance displayed a percent reduction of mIL-33 binding against HpARI2 of 60%.

In the case of “HpARI2-LD (full-length HpARI2 with residues 180-188 of the CCP3 loop deleted) (natural protein)”, the percent reduction of mIL-33 binding to ST2-Fc at 2.5 µM HpARI2-LD in experiment [8] was determined as 25%. In experiment [9], this substance showed a protein concentration needed for the same inhibition of IL-5 and IL-13 release as wild-type HpARI2 (bone marrow-derived ILC2s) of 100 fold.

In [5], mouse IL-33 R159A mutant (ligand) showed a fold reduction in binding affinity against wild-type mIL-33 of 1000 fold.

On to “human IL-33 S158R mutant (from UniProt O95760) (ligand)”, for which the fold increase of HpARI2 binding against human IL-33 in experiment [1] was more than 100 fold.
